Experimental findings from patent publication US20260209322A1 (HAMAD BIN KHALIFA UNIVERSITY, published 2026) are described below.

Holding throughout (experiment): filter retardation assay
Test [1] addresses β-synuclein (UniProt Q16143 1-134).
Procedure: (§1) Filter retardation assay was performed using a Minifold 48 slots (GE Healthcare Life Sciences). Each protein (50 μl) at a final concentration of 1 μg/ml was loaded into each slot on a nitrocellulose membrane that has been pre-soaked in PBS. Samples were allowed to absorb onto the nitrocellulose membrane and then slots were washed with 1 ml of PBS. Membranes were then probed with relevant antibodies, and developed with SuperSignal West Pico Chemiluminescent Substrate Kit.
Test [2] concerns the target γ-synuclein (UniProt O76070 1-127).
Procedure: as §1
The target in test [3] is mouse α-synuclein (mouse, UniProt O55042 1-140).
Procedure: as §1

Chain of β-synuclein (Q16143 whole entry): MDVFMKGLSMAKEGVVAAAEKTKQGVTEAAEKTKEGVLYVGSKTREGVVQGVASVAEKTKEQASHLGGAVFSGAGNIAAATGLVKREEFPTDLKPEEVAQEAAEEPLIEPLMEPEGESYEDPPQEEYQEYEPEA
Chain of γ-synuclein (O76070 whole entry): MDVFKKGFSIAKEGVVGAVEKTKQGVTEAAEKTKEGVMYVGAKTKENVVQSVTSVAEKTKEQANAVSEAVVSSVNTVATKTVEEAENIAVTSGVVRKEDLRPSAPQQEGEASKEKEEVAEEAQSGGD

B1: monoclonal antibody 4B1 produced by hybridoma 4B1 (ATCC Patent Deposit Number PTA-127017) (antibody, mouse IgG1, kappa, V domains shown)
VH: EVKLVESGGGLVQPGGSLKLSCAASGITFSSYTMSWVRQTPEKRLEWVGYISNGGGRTYYPDTVKGRFTISRDNAKNTLYLQMSSLKSEDTAMYYCARQITTAMGYYYAMDYWGQGTSVTVSS
VL: DVVMTQTPLSLPVSLGDQASISCRSSQSLVHSNGNTYLHWYLQKPGQSPKLLISKVSNRFSGVPDRFSGSGSGTDFTLKISRVEAEDLGVYFCSQSTHVPLTFGAGTKLELKR
notes: also called mAb 4B1; 4E1
With B1, the results for the binding result in test [1], in test [2] and in test [3] were “no binding”, “no binding” and “binds”, respectively.
